Experimental data: publication doi:10.1101/2023.11.19.566349

How the values were obtained:
Test in all cases: EMSA
[1] = biological target: T1, Tric1 SAM Asp235Ala (Arabidopsis thaliana, UniProt Q9SCK3 191-261, D235A)
T1 sequence: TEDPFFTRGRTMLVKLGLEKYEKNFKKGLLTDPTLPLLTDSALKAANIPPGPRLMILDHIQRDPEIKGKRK

[2] = biological target: T2, Tric1 SAM Gly241Glu (Arabidopsis thaliana, UniProt Q9SCK3 191-261, G241E)
T2 sequence: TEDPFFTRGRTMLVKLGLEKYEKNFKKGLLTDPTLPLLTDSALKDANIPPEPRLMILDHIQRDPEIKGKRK

[3] = biological target: T3, Tric1 SAM Asp235Ala:Gly241Glu (Arabidopsis thaliana, UniProt Q9SCK3 191-261, D235A;G241E)
T3 sequence: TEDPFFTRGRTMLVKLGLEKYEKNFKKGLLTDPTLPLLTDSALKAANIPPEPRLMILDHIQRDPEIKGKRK

[4] = biological target: T4, Tric1 SAM domain WT (Arabidopsis thaliana, UniProt Q9SCK3 191-261)
T4 sequence: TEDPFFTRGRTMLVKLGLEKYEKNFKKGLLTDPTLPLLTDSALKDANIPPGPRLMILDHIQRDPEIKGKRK

UCGCUUUGCAUGCGA (structured_RNA) [tRNAala T-arm]: no binding [1]; no binding [2]; no binding [3]. UCGCUUUGCAUGCGA (structured_RNA) [tRNAala T-arm]: binds [4].
